Measurements taken from PMC11931385, “Structural and functional analysis of cancer-associated missense variants in the retinoblastoma protein pocket domain” (The Journal of Biological Chemistry, 2025).
Numbering of substitutions follows the chain as printed. Names may count otherwise. No end group written: not given here. TMR = tetramethyl rhodamine dye

B1: TMR-E2F1^TD, peptide of the E2F1 transactivation domain (peptide)
peptide: {TMR}-GEGIRDLFDCDFGDLTPLD
notes: also called E2F^TD; source: synthetic peptide, bought: GenScript
B2: TMR-E7^LxCxE, LxCxE peptide of the E7 oncoprotein from HPV (peptide)
peptide: DLYCYEQLN
modifications: also: TMR label, position not given here
notes: source: synthetic peptide, bought: GenScript

Columns and labels:
Assay in all cases: fluorescence polarisation; 37 °C, after the 25 °C reading ramped over 7 min to 37 °C and 2 min incubation; unlabeled Rb^P against 1.5 nM TMR-E2F1^TD or 7.5 nM TMR-E7^LxCxE; 25 mM Tris pH 8.0, 200 mM NaCl, 1 mM DTT, 0.1% Tween-20; apparent Kd
Details in all cases: both partners purified
[1] = target: T1, Rb^P A490S (human, UniProt P06400 380-788, A490S)
T1 construct: also called variant 15
T1 sequence (looked up): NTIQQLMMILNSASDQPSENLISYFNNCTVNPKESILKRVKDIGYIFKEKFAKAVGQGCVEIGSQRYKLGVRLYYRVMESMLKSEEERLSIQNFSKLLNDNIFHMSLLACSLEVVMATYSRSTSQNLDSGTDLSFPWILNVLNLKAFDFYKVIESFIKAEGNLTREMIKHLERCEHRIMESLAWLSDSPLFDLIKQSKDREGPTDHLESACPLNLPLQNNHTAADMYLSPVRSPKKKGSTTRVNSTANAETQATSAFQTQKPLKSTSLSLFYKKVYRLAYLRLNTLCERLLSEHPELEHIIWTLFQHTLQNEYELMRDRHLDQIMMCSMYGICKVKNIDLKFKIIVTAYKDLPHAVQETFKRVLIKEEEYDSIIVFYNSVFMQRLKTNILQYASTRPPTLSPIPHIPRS

[2] = target: T2, Rb^P R556Q (human, UniProt P06400 380-788, R556Q)
T2 construct: also called variant 30
T2 sequence (looked up): T1 sequence (looked up) with S111A, R177Q

[3] = target: T3, Rb^P H673P (human, UniProt P06400 380-788, H673P)
T3 construct: also called variant 54
T3 sequence (looked up): T1 sequence (looked up) with S111A, H294P

[4] = target: T4, Rb^P D584Y (human, UniProt P06400 380-788, D584Y)
T4 construct: also called variant 32
T4 sequence (looked up): T1 sequence (looked up) with S111A, D205Y

[5] = target: T5, Rb^P A490T (human, UniProt P06400 380-788, A490T)
T5 construct: also called variant 16
T5 sequence (looked up): T1 sequence (looked up) with S111T

Binder	Kd [1] [nM]	Kd [2] [nM]	Kd [3] [nM]	Kd [4] [nM]	Kd [5] [nM]
B1	29	48	98	51	115
B2	15	13	83	20	33
